Laboratory results reported in patent publication US9340596B2, “Fusion protein comprising tumor necrosis factor related apoptosis inducing ligand and integrin ligand and use thereof” (NANJING UNIVERSITY, priority 2007, dated 2016).

Assays:
[1] = tested on: human foreskin microvascular endothelial cells; test: Cell adhesion assay of human foreskin microvascular endothelial cells on protein-coated wells; assay type: cell-based; settings: free protein added to plates coated with TRAIL variant protein
Method: The TRAIL and its variant protein are coated on a 96-well PVC plate overnight at 4° C. The coated 96-well plate was rinsed with 0.9% physiological saline, and then blocked for 1 h at 1640 culture medium containing 2% bovine serum albumin, and then rinsed again. After the human foreskin microvascular endothelial cells were digested, washed three times with phosphate buffer and re-suspended into the complete RPMI1640 medium, it was then added to the 96-well plate coated with TRAIL and its variant (40,000 cell per well). After the cells were incubated for 1.5 hours in an incubator containing 5% carbon dioxide, they were washed three times with physiological saline to remove the non-adherent cells. The adherent cells were fixed for 30 min with phosphate buffer solution (pH 7.3) containing 4% formalin and 2% sucrose, and then stained with 0.5% crystal violet. The fixed stained cells were rinsed several times, then dissolved with […] DMSO to test the absorbance values at 540 nm. All the tests should be carried out at least three times independently.

[2] = tested on: COLO-205 colon cancer cells; test: Cell apoptosis, Annexin V and PI double staining, COLO-205; assay type: cell-based; settings: COLO-205 cells pre-incubated with RGD-L-TRAIL (C230G), then induced with RGD-L-TRAIL
Method: After the cells treated with TRAIL and its variant were digested with trypsin, they were removed from the cultivation plate, washed twice with phosphate buffer solution, and centrifuged for 5 min at 300 g centrifugal force. The supernatants were removed, and the cells were re-suspended in 100 ul of binding buffer solution. Then, Annexin V-FITC (BD Pharmgen) was added until a final concentration of 2 μg/ml was achieved, followed by incubation at room temperature. After 10 min, 400 ul of binding buffer was added, and the cells were transferred to a flow analysis tube. 1 μg of […] (Sigma Corporation) was added to each tube. The cells were analyzed with a flow cytometer within 30 min. At least three separate tests should be carried out for each cell line.

B1: RGD-L-TRAIL (C230G): TRAIL variant fused with αVβ3 and αVβ5 integrin ligands with a mutation at TRAIL's activity center causing loss of biological activity (protein)
chain: ACDCRGDCFCGGGGGVRERGPQRVAAHITGTRGRSNTLSSPNSKNEKALGRKINSWESSRSGHSFLSNLHLRNGELVIHEKGFYYIYSQTYFRFQEEIKENTKNDKQMVQYIYKYTSYPDPILLMKSARNSGWSKDAEYGLYSIYQGGIFELKENDRIFVSVTNEHLIDMDHEASFFGAFLVG
reduction by free protein of endothelial cells adhered to microplates coated with RGD-L-TRAIL (competitive test) [1]: significantly reduce
effect of pre-incubation with the competitive inhibitor on RGD-L-TRAIL-induced apoptosis activity [2]: declined significantly
